Test results from patent US10801046B2, “Methods and materials for biosynthesizing multifunctional, multivariate molecules via carbon chain modification” (INVISTA NORTH AMERICA S.A.R.L., priority 2016, dated 2020).

tested on: not listed separately; assay: In vivo aminotransferase activity screening, 7-aminoheptanoate by LC-MS; type: cell-based, Escherichia coli; details: in vivo conversion of 7-oxoheptanoate to 7-aminoheptanoate, 120 aminotransferases screened
Summary of the method: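 Aminotransferase library expressed in E. coli T7 Express lysY/Iq co-expressing sfp, CAR_Srot and BioC, grown overnight at 37° C in rich media with 0.4 mM IPTG and 1 g/L monomethyl heptanedioate, heptanedioate or no acid. Culture supernatants analysed by LC-MS for 7-aminoheptanoate or its monomethyl ester.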

Molecule	7-aminoheptanoate yield compared to the positive control (F2XBU9)
SEQ ID NO: 117: Thermomicrobium roseum aminotransferase (protein, Thermomicrobium roseum (strain ATCC 27502 / DSM 5159 / P-2), Thermomicrobium roseum aminotransferase) MTEVAAVHPEPRTAPDFEQEALKHVWIHSAEWIRLAEERGFRVFERAYGSTLVDVYGREFIDGLSGLWVVNAGHGRKEIAEAMAEQASKLAYVSSANHTTVPTVRLAHELALRLPGDLNRVFFCSGGSEAVESAIKIAKQVQAMRGFPKRYKIIARRGSYHGMTYGAMSLTQSRNEKFFGPFMYGVYYVPSPNRYRNDFGLEGEEGDLMCANYVEQEILYQDPETVAAVIGEPISTSNGVHVPSPKYWQRLREICDKYGVLLIMDEVINGFGRTGKLFAAEHFGVVPDLMTMAKGITSGYAPMGAVAVRDSVFQIFQEQKEVPLGHLLTFGGHAVAAAAALKNLEIFEREGLVQQSAEKGAYLLERLKELLRHPTVGDVRGLGLMCGIELVKSKATKEKWPRNSAFIKALERRMNEKGLLTRVWEIVHVAPPLVVTYEELDRIVTIIDEALTETENEFASEIAE	higher 7-aminoheptanoate yields
SEQ ID NO: 123: Pseudomonas sp. 10-1B aminotransferase (protein, Pseudomonas sp. 10-1B, Pseudomonas sp; 10-1B aminotransferase) MENSMSLNDLQQRDIDNLLHPYTNHHLHQSQGPHVITGGDGIYVTDDQGNRYIEGLAGLFCASLGFSEPRLAQAAFEQLQRMPFYHAFAHKSTQPGIELAERLLAMAPPSMSKVFFANSGSEANDTAVKLIWYYHNAIGQPQKKKIIARQRGYHGVTVASASLTGLPNNHRDFDLPIANILHTDCPHYYRYGLPGESEAAFVDRCVANLEALILHEGADTIAAFFAEPVMVSGGVILPPQGYFAKVQALLRKYDILFVVDEVICGFARTGNMFGWQTYDLQPDMISLAKQLSAAYMPISALLVNDKIDQALKAQSEKIGSFSHGFTYGGHPVAAAVALEAQKIYQERDIVGHVRRVAPRFQAGIRRLGEHPLIGEARGVGLVAGLEFVRNKQTRETFAPEQSAAAYAGRRAQAHGVITRGLGDTLSLCPALIIDEEQIDDLIVRIERALDDTLAWAREQGLVDA	higher 7-aminoheptanoate yields

tested on: heptanedioyl-ACP methyl ester; assay: not given; type: cell-based, Escherichia coli; details: 146 thioesterases screened

Molecule	impact on monomethyl heptanedioate production
SEQ ID NO: 73: Thalassospira xiamenensis M-5 thioesterase (protein, Thalassospira xiamenensis M-5 = DSM 17429, Thalassospira xiamenensis M-5 thioesterase) MTIQWDEIAKPALPANCGWRGTYRVRYSEIGDNGLAMLPALADYMQDAAGWGARILKLAYDDTVDKGMAWVLARMVIHVRRYPGNGEDIIVETWPSGVARRVATRDFRLIDSSGDVIAVAQSFWVMFDLLERRAASWPDWIEERLPKPPGPKLIEPPFRPPFTTDPLPEIDSIKARPSDLDLYGHVNNVRLMQWVLGATGADSKPDFHPESIDIQFRTECRVQERVTVRQKDGFAAITRDGDGVDLVRAHVVPKNRTALA	promising

same assay, conditions: top 150 hits screened in vivo

Molecule	activity toward heptanedioyl-ACP methyl ester in vivo
SEQ ID NO: 73: Thalassospira xiamenensis M-5 thioesterase (protein, Thalassospira xiamenensis M-5 = DSM 17429, Thalassospira xiamenensis M-5 thioesterase) MTIQWDEIAKPALPANCGWRGTYRVRYSEIGDNGLAMLPALADYMQDAAGWGARILKLAYDDTVDKGMAWVLARMVIHVRRYPGNGEDIIVETWPSGVARRVATRDFRLIDSSGDVIAVAQSFWVMFDLLERRAASWPDWIEERLPKPPGPKLIEPPFRPPFTTDPLPEIDSIKARPSDLDLYGHVNNVRLMQWVLGATGADSKPDFHPESIDIQFRTECRVQERVTVRQKDGFAAITRDGDGVDLVRAHVVPKNRTALA	showed activity toward heptanedioyl-ACP methyl ester

tested on: heptanedioyl-ACP; assay: not given; type: cell-based, Escherichia coli; details: top 150 hits screened in vivo

Molecule	activity toward heptanedioyl-ACP in vivo
SEQ ID NO: 193: Pseudomonas fluorescens thioesterase (protein, listed as Pseudomonas fluorescens) MRVWFLSAGLALMCMAQNAAAGTVLIVGDSISAGFGLDTRLGWVSLLEQRLEQEGFDDKVVNASISGDTSAGGQARLPALLAEHKPDLVILELGGNDGLRGMPPTQLQQNLAAMIDSSRQSGAKVLLLGMQLPPNYGKRYTDAFAEVYGKLADDKKIPLVPFFLDGVGGHPDLMQADGLHPAAGAQGKLLENVWPTLKPLL	displayed considerable activity toward heptanedioyl-ACP
SEQ ID NO: 192: Vibrio mytili thioesterase (protein, listed as Vibrio mytili) MIRLLSLFLFFSLSTLAHANEKLLVLGDSLSAGYQMPIEKSWPSLLSNALLEHDQDVTVINGSISGDTTGNGLARLPQLLDQHTPDFVILELGANDGLRGFPPKLITANLSKMITMIKNSGAKVFMMQIRVPPNYGKRYSDMFYDIYPKLAEHQQVTLLPFFLEHVVTKPEWMMDDGLHPKPEAQPWIAEFVAQELIKHL	displayed considerable activity toward heptanedioyl-ACP
SEQ ID NO: 188: Vibrio mimicus thioesterase (protein, listed as Vibrio mimicus) MIRLLSLVLFFCLSAASQASEKLLVLGDSLSAGYQMPIEKSWPSLLPDALLEHGQDVTVINGSISGDTTGNGLARLPQLLDQHTPDLVLIELGANDGLRGFPPKVITSNLSKMISLIKDSGANVVMMQIRVPPNYGKRYSDMFYDIYPKLAEHQQVQLMPFFLEHVITKPEWMMDDGLHPKPEAQPWIAEFVAQELVKHL	displayed considerable activity toward heptanedioyl-ACP
SEQ ID NO: 82: Vibrio shilonii AK1 thioesterase (protein, Vibrio shilonii AK1, Vibrio shilonii AK1 thioesterase) MIRQLSYFVLIVISLASFHAKAATLLILGDSLSAGYNMRAEQSWPTMLSDELSSGDEPMKVINGSVSGDTTSNGLAKLPGLLKQHSPDYVLIELGANDGLRGFQPSIIKNNLASLIEMSQQAGSKVLLMQIRIPPNYGKRYASMFEGIYPALAQESGVPLLPFFLEQVIIKPEWMMEDGLHPKPEAQPFIAQFVAESMQPHL	displayed considerable activity toward heptanedioyl-ACP
SEQ ID NO: 86: Marine sediment metagenome thioesterase (protein, Description of Unknown: Marine sediment metagenome, Marine sediment metagenome thioesterase) MTVKALTTRLPAPGPQVRYFSALRSAVLCVFLLAAGFCASTSAESDDGVLLVFGDSLSAAYRMDERDGWVALLQQQLREESTALQVVNGSVSGETTAGGLARLPAMLDAHQPDIVMLELGGNDGLRGLPVTSIRQNLERMIQMSQQAGARVILAGIQIPPNYGPRYTAPFYAQYQELADEYGLVLIPFLLEGIADNPALMQDDGIHPTAAAQPMIVDTVWPVLQGVLTATDRP	displayed considerable activity toward heptanedioyl-ACP
SEQ ID NO: 190: Bacteroides finegoldii CL09T03C10 thioesterase (protein, Bacteroides finegoldii CL09T03C10, Bacteroides finegoldii CL09T03C10 thioesterase) MSESNKIGTYKFVAEPFHVDFNGRLTMGVLGNHLLNCAGFHASDRGFGIASLNEDNYTWVLSRLAIELDEMPYQYEDFSVQTWVENVYRLFTDRNFAIMNKEGKKIGYARSVWAMISLNTRKPADLLALHGGSIVDYICDEPCPIEKPSRIKVTNTQPLATLTAKYSDIDINGHVNSIRYIEHILDLFPIDLYKTKRIRRFEMAYVAESYFGDELTFFCDEANENEFHVEVKKNGSEVVCRSKVIFE	displayed considerable activity toward heptanedioyl-ACP
SEQ ID NO: 189: Sedimenticola thiotaurini thioesterase (protein, listed as Sedimenticola thiotaurini) MKKLFLLLIFAMSNVPAAEPVILVLGDSLSAAYGIERSRGWVSLLQSRLQQAGYPHRVVNASISGDTTAGGLARLPRALEQFQPDILIIELGGNDGLRGLGNRQTRDHLDQMITLARASHSRPLLLGMMLPPNFGKAFTEKFLQIYRDLAEQRNVPLVPFFLAGVADRPEWMQSDGIHPTAEGQPLMLEHVWEQLQPMLEETSVHSDKSLK	displayed considerable activity toward heptanedioyl-ACP
SEQ ID NO: 85: Ferrimonas balearica thioesterase (protein, Ferrimonas balearica (strain DSM 9799 / CCM 4581 / PAT), Ferrimonas balearica thioesterase) MVRRSLLILMLCLYQPGAWADQPSILILGDSLSASYGMSEAEGWVKKLQQNLPDAQIINASVSGETSGGGLRRLPGLLQQHQPDWVFVELGGNDGLRGFQPTITENNIEQLITLSKASGAQVLLSEVMVPPNYGRRYAERFQQIYHGLAKEHEVELVPFFMTEIATDPNLMQADGIHPNREAQGRIAAFLLPWFEQAIAE	displayed considerable activity toward heptanedioyl-ACP
SEQ ID NO: 194: Pseudomonas stutzeri (strain A1501) thioesterase (protein, Pseudomonas stutzeri (strain A1501), Pseudomonas stutzeri (strain A1501) thioesterase) MRRWLKCGALALLCWTQGALAGTVLVVGDSISAAFGLETSQGWVHLLQERLVEGDESWRVVNASISGDTTAGGLARLDPLLEEHTPEVVILELGGNDGLRGQSPVQLKQNLADMIDRSREAGAEVLLLGMRMPPNLGQRYTRAFADAFDSLAQEKSVAYVPFLLEGVGGVAGMMQADGIHPTAEAQSQLLETVWPALEPLL	displayed considerable activity toward heptanedioyl-ACP
SEQ ID NO: 195: Halobacteriovorax marinus thioesterase (protein, listed as Halobacteriovorax marinus, Halobacteriovorax marinus (strain ATCC BAA-682 / DSM 15412 / SJ), Halobacteriovorax marinus thioesterase) MKSPVFKKKYQVSISNVNINKRLGLFGLLGYLQDIATLHAEIAGFGLDEMISSNSFWVLVRQEIRMNKFPKWNDEIEIQTWSRTPQGMYAFREFEFFLNDEKVGSCSTAWMILSGDTRRIKKPDFPIEKINPRLDSLLDYCAERIKVLDNFELVNEIKVRISDLDLNMHVNNTKYTQWVLDSIPIELHKSAKLRNYQINFLKEAHLGDEIDIYRASSAKDESAHDTQFKGIRRSDQSTIFYVNIIADT	displayed considerable activity toward heptanedioyl-ACP
SEQ ID NO: 191: Pseudoalteromonas sp. SW0106-04 thioesterase (protein, Pseudoalteromonas sp. SW0106-04, Pseudoalteromonas sp; SW0106-04 thioesterase) MSASILRVFIVLLLVTKPLFAWADNQILVLGDSLSAAYGLKQHQGWVQLLQDTYEQQNTPTTLINASISGETTGGALRRLDAILKEHTPTHVLIELGGNDGLRGFPVTKMKANLHALIDKSREAGAEVALMQIRIPPNYGRRYTELFEQSFVDVAKEKQVTLMPFFVEQVATNGELMQNDNIHPNAEAQPILRDIMKTQISNWLTK	displayed considerable activity toward heptanedioyl-ACP
SEQ ID NO: 73: Thalassospira xiamenensis M-5 thioesterase (protein, Thalassospira xiamenensis M-5 = DSM 17429, Thalassospira xiamenensis M-5 thioesterase) MTIQWDEIAKPALPANCGWRGTYRVRYSEIGDNGLAMLPALADYMQDAAGWGARILKLAYDDTVDKGMAWVLARMVIHVRRYPGNGEDIIVETWPSGVARRVATRDFRLIDSSGDVIAVAQSFWVMFDLLERRAASWPDWIEERLPKPPGPKLIEPPFRPPFTTDPLPEIDSIKARPSDLDLYGHVNNVRLMQWVLGATGADSKPDFHPESIDIQFRTECRVQERVTVRQKDGFAAITRDGDGVDLVRAHVVPKNRTALA	displayed considerable activity toward heptanedioyl-ACP
